{"source": "patent US20240360223A1", "key": {"[1]": {"molecular_target": "poly-specificity reagent (PSR)", "test": "flow cytometry PSR assay: test article on Protein A beads, biotinylated PSR, read-out with SA-PE"}, "[2]": {"molecular_target": "poly-specificity reagent (PSR)", "test": "flow cytometry PSR assay: test article on protein A beads, biotinylated PSR detected with streptavidin-PE"}, "[3]": {"molecular_target": "poly-specificity reagent (PSR)", "test": "PSR assay: protein on protein A coated beads, biotinylated PSR, SA-PE, flow cytometry; + PSR panel (Q2 is 0 in the No PSR panel FIG. 43E)"}}, "data": [{"substance": "trastuzumab (antibody)", "values": [{"measurement": "% of events in Q2 (Expression-FITC positive, Binding-PE positive), + PSR", "setting": "[1]", "value": 0.087, "unit": "%"}, {"measurement": "% of events in Q2 (Expression-FITC positive, Binding-PE positive), + PSR", "setting": "[2]", "value": 0.067, "unit": "%"}]}, {"substance": "Ixekizumab (PSR positive control) (antibody)", "values": [{"measurement": "% of events in Q2 (Expression-FITC positive, Binding-PE positive), + PSR", "setting": "[2]", "value": 79.6, "unit": "%"}]}, {"substance": "Ixekizumab (antibody)", "values": [{"measurement": "% of events in Q2 (Expression-FITC positive, Binding-PE positive), + PSR", "setting": "[1]", "value": 79.6, "unit": "%"}]}, {"substance": "Ixekuzumab (antibody)", "values": [{"measurement": "% of beads in quadrant Q2 (Binding-PE positive), + PSR", "setting": "[3]", "value": 27.1, "unit": "%"}]}, {"substance": "Rituximab (antibody)", "values": [{"measurement": "% of events in Q2 (Expression-FITC positive, Binding-PE positive), + PSR", "setting": "[1]", "value": 56.2, "unit": "%"}]}]}
